The results in this text go back to US20200109196A1 (MOGAM INSTITUTE FOR BIOMEDICAL RESEARCH, published 2020).

By Kd is commonly meant the constant that tells how readily two partners part at equilibrium. As usually defined, the koff is a measure of how fast the partners let go of each other. As usually defined, the kon is a measure of how fast the partners come together. As usually defined, the EC50 (read off the curve) is the midpoint of the concentration-response curve. Higher therefore signals a less potent agent.

Experiment [1] has as its target T1, recombinant human CEACAM-1/CD66a protein Bulk (R&D systems; Cat. No. 2244-CM) (human, UniProt P13688 35-428).
T1 construct: Same catalogue number as HCCM1, coated as a separate antigen ('bulk'); also called HCCM1 (bulk)
T1 sequence (looked up): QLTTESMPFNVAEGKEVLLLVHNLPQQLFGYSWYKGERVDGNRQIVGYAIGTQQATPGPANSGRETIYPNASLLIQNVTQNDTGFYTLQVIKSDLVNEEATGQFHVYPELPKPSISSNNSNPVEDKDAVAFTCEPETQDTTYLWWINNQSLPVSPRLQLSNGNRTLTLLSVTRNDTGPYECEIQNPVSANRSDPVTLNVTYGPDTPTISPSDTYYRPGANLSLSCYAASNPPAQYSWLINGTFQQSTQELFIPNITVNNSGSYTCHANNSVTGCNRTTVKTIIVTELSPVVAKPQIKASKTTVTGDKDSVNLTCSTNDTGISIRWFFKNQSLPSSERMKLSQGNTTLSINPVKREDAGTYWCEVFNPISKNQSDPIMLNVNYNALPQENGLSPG
In words: ELISA, coated antigen, anti-human IgG Fab-HRP. Background: In an ELISA, binding on a coated surface is turned into a signal by an enzyme label.

Experiment [2] concerns the target T2, recombinant human CEACAM-1/CD66a protein (R&D systems; Cat. No. 2244-CM) (human, UniProt P13688 35-428).
T2 construct: Bought protein; captured on anti-His (His1K) biosensors in the Octet assay, so it carries a His tag; also called HCCM1; recombinant CEACAM-1/CD66a protein
T2 sequence (looked up): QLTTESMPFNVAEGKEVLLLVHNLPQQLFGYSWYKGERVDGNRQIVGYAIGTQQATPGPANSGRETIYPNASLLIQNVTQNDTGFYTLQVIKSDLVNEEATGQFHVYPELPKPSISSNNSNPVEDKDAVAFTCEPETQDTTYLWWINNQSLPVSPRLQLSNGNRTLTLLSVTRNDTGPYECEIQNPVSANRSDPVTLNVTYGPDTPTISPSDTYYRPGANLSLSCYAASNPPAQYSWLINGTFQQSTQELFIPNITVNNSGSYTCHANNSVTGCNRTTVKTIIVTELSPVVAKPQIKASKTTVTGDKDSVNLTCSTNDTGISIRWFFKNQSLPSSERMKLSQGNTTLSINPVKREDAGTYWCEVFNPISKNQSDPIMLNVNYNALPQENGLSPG
Briefly: Octet QKe biolayer interferometry, anti-His (HIS1K) biosensors, antibody 6.25-400 nM. The method, then: The last well in each row was with a sample at the antibody concentration of 0 nM. Recombinant human CEACAM1 protein (R&D Systems; Cat. No. 2244-CM) was diluted to obtain a concentration of […], and dispensed into each well of another column at 200 μl/well.
As for the washing buffer, neutralization buffer and baseline buffer, Reagent/Kinetics buffer (10×) (Fortebio; Cat. No. 18-1092) were 1:10 diluted and dispensed into each well of a column in a row at 200 μl/well, and the regeneration buffer was dispensed into each well at 200 μl/well. Greiner 96-well plate was separately prepared, Reagent/Kinetics buffer (1×) was dispensed into each well of the number of biosensors to be used in a row at 200 μl/well, and Biosensors/Anti-His (His1K) (Fortebio; Cat. No. 18-5120) cassette was installed.
For orientation: In BLI a coated tip is dipped into the sample, and binding shifts an interference pattern.

For experiment [3], the target named is T3, human CEACAM1 expressed on the cell surface (CEACAM1-Jurkat T cells); HEK293 cells transfected with human … (human, UniProt P13688 35-526).
T3 construct: whole, on cells; also called CCM1
T3 sequence (looked up): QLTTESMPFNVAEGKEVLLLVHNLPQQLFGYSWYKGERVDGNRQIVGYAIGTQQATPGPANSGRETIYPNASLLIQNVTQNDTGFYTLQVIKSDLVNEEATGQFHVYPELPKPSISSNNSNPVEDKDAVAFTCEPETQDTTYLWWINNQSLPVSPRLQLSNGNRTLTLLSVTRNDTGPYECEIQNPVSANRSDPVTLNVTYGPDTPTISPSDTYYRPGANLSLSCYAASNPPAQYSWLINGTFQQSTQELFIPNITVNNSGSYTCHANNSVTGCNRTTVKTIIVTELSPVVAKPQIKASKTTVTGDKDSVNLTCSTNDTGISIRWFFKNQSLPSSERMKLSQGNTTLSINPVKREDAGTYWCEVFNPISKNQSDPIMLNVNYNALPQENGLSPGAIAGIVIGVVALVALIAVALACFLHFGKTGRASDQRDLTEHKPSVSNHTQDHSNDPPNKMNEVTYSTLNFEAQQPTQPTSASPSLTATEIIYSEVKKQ
Briefly: flow cytometry on CEACAM1-Jurkat T cells, PE goat anti-human F(ab)2, MFI [b]. The method, then: The CEACAM1-Jurkat T cells prepared above were treated with Fc block solution and incubated for 15 minutes. […] Herein, it is noted that the cell numbers were adjusted to 1×10⁵. The cells incubated with the antibodies were repeatedly subjected to the washing procedure of resuspending the cells in a FACS buffer and centrifuging the solution at 1,500 rpm.
PE-conjugated goat anti-human F(ab)₂; (Sigma; Cat. No. P8047)) was diluted in the FACS buffer at a volume ratio of 1:200, and then added to the cells at 100 μl/well. Cells were resuspended well and incubated at 4° C. for 30 minutes in a dark condition.
The cells incubated with the fixation buffer were repeatedly subjected to the washing procedure of resuspending the cells in a FACS buffer, centrifuging the solution at 1,500 rpm, and discarding the supernatant. The washed cells were resuspended in 200 μl of a FACS buffer, and the mean fluorescence intensities (MFIs) of the PE-labeled cells were monitored by a FACS LSR-Fortessa. All FACS analyses were conducted using the FlowJo software.
(In flow cytometry, cells or beads pass a laser one at a time.)

B1: C19 (antibody, human IgG4 S228P, lambda, V domains shown)
VH: EVQLLESGGGLVQPGGSLRLSCAASGFTFSGYAMSWVRQAPGKGLEWVSGIYHDGGSTYYADSVKGRFTISRDNSKNTLYLQMNSLRAEDTAVYYCARVTVLCTTYGCSSYDGMDVWGQGTLVTVSS
VL: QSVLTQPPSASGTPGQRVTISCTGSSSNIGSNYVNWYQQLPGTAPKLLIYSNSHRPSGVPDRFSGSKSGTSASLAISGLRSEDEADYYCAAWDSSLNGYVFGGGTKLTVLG
Take B1: in experiment [1], the binding result is given as “binds”.

B2: C15 (antibody, human IgG4 S228P, lambda, V domains shown)
VH: EVQLLESGGGLVQPGGSLRLSCAASGFTFSSYSMSWVRQAPGKGLEWVSSISPNGGNKYYADSVKGRFTISRDNSKNTLYLQMNSLGAEDTAVYYCAKDPYNIYQPLFDYWGQGTLVTVSS
VL: QSVLTQPLSASGTPGQRVTISCSGSSSNIGNNYVNWYQQLPGTAPKLLIYANSNRPSGVPDRFSGSKSGTSASLAISGLRSEEEADYYCGTWDASLSAYVFGGGTKLTVLG
For B2, in experiment [1], the binding result is on record as “binds”.

B3: C18 (antibody, human IgG4 S228P, lambda, V domains shown)
VH: EVQLLESGGGLVQPGGSLRLSCAASGFTFSNYDMSWVRQAPGKGLEWVSGISHSSGSKYYADSVKGRFTISRDNSKNTLYLQMNSLRAEDTAVYYCARDPLPCLIPKCSYYYAMDVWGQGTLVTVSS
VL: QSVLTQPPSAPGTPGQRVTISCSGSSSNIGSNAVTWYQQLPGTAPKLLIYADSHRPSGVPDRFSGSKSGTSASLAISGLRSEDEADYYCGSWDDSLNAYVFGGGTKLTVLG
In the case of B3, the binding result in experiment [1] is reported as “binds”.

B4: 4R9 (antibody, human IgG4 S228P, lambda, V domains shown)
VH: EVQLLESGGGLVQPGGSLRLSCAASGFTFSNYAMSWVRQAPGKGLEWVSVISHGGGSIYYADSVKGRLTISRDNSKNTLYLQMNSLRAEDTAVYYCARDPTKGYAPTFDYWGQGTLVTVSS
VL: QSVLTQPPSASGTPGQRVTISCSGSSSNIGNNYVSWYQQLPGTAPKLLIYADSRRPSGVPDRFSGSKSGTSASLAISGLRSEDEADYYCGAWDLSLNGYVFGGGTKLTVLG
notes: also called C25-derived clone 4R9
For B4, in experiment [2], the Kd worked out at 3.39 nM, the koff was 0.000567 s⁻¹ and the kon turned out to be 163000 M⁻¹ s⁻¹. In addition, the “EC50 (read off the curve)” value in experiment [3] was ~0.05 µg/mL.

B5: C17 (antibody, human IgG4 S228P, lambda, V domains shown)
VH: EVQLLESGGGLVQPGGSLRLSCAASGFTFSDYSMSWVRQAPGKGLEWVSVIYPDDGNTYYADSVKGRFTISRDNSKNTLYLQMNSLRAEDTAVYYCARGSIWWLSLIPSSYNAMDVWGQGTLVAVSS
VL: QSVLTQPPSASGTPGQRVTISCSGSSSNIGNNAVNWYQQLPGTAPKLLIYANSHRPSGVPDRFSGSKSGTSASLAISGLRSEDEADYYCGAWDASLNGYVFGGGTKLTVLG
As to B5, in experiment [1], the binding result was “binds”.

B6: C25 (antibody, human IgG4 S228P, lambda, V domains shown)
VH: EVQLLESGGGLVQPGGSLRLSCAASGFTFSNYAMSWVRQAPGKGLEWVSVISHGGGSIYYADSVKGRLTISRDNSKNTLYLQMNSLRAEDTAVYYCARDPTKGYAPTFDYWGQGTLVTVSS
VL: QSVLTQPPSASGTPGQRVTISCSGSSSNIGNNYVSWYQQLPGTAPKLLIYADSKRPSGVPDRFSGSKSGTSASLAISGLRSEDEADYYCGAWDASLNGYVFGGGTKLTVLG
notes: Made in ExpiHEK293F cells, protein A purified. huIgG4 is the isotype control and anti-huIgG4 the detection reagent; the isotype is not otherwise stated; also called anti-CEACAM1 antibody C25
B6: in experiment [2], the Kd stood at 34.9 nM, the koff is 0.000505 s⁻¹ and the kon turned out to be 18200 M⁻¹ s⁻¹. Besides, the “EC50 (read off the curve)” value in experiment [3] is ~0.6 µg/mL.

B7: C22 (antibody, human IgG4 S228P, lambda, V domains shown)
VH: EVQLLESGGGLVQPGGSLRLSCAASGFTFSDYDMSWVRQAPGKGLEWVSMIYSGSSSKYYADSVKGRFTISRDNSKNTLYLQMNSLRAEDTAVYYCAKAPLPFYFRPKSYYYAMDVWGQGTLVTVSS
VL: QSVLTQPPSASGTPGQRVTISCSGSSSNIGSNNVTWYQQLPGTAPKLLIYANSHRPSGVPDRFSGSKSGTSASLAISGLRSEDEADYYCGSWDSSLNAYVFGGGTKLTVLG
Consider B7, for which, in experiment [1], the binding result is listed as “binds”.

B8: 4R9_H4-n20 (antibody, human IgG4 S228P, lambda, V domains shown)
VH: EVQLLESGGGLVQPGGSLRLSCAASGFNFSNYAMSWVRQAPGKGLEWVSVISHGGGSIYYADSVKGRLTISRDNSKNTLYLQMNSLRAEDTAVYYCARDPTKGYAPTFDYWGQGTLVTVSS
VL: QSVLTQPPSASGTPGQRVTISCSGSSSNIGNNYVSWYQQLPGTAPKLLIYADSRRPSGVPDRFSGSKSGTSASLAISGLRSEDEADYYCGAWDLSLNGYVFGGGTKLTVLG
notes: also called C25-derived clone 4R9_H4-n20
With B8, in experiment [2], the Kd stood at 39 nM, the koff came out at 0.000333 s⁻¹ and the kon was 26100 M⁻¹ s⁻¹. The “EC50 (read off the curve)” value in experiment [3] was ~0.4 µg/mL.

B9: 4R26 (antibody, human IgG4 S228P, lambda, V domains shown)
VH: EVQLLESGGGLVQPGGSLRLSCAASGFTFSNYAMSWVRQAPGKGLEWVSVISHGGGSIYYADSVKGRLTISRDNSKNTLYLQMNSLRAEDTAVYYCARDPTKGYAPTFDYWGQGTLVTVSS
VL: QSVLTQPPSASGTPGQRVTISCSGSSSNIGNNYVSWYQQLPGTAPKLLIYADSKRLSGVPDRFSGSKSGTSASLAISGLRSEDEADYYCGAWDGRLNGYVFGGGTKLTVLG
notes: also called C25-derived clone 4R26
Consider B9, for which, in experiment [2], the Kd was 1.82 nM, the koff amounted to 0.000266 s⁻¹ and the kon was 133000 M⁻¹ s⁻¹. Further, the “EC50 (read off the curve)” value in experiment [3] was ~0.08 µg/mL.

B10: 4R9_H2-2 (antibody, human IgG4 S228P, lambda, V domains shown)
VH: EVQLLESGGGLVQPGGSLRLSCAASGFTFSNYAMSWVRQAPGKGLEWVSVISHGGGSIYYADSVKGRLTISRDNSKNTLYLQMNSLRAEDTAVYYCARDPTKGYAPLFDYWGQGTLVTVSS
VL: QSVLTQPPSASGTPGQRVTISCSGSSSNIGNNYVSWYQQLPGTAPKLLIYADSRRPSGVPDRFSGSKSGTSASLAISGLRSEDEADYYCGAWDLSLNGYVFGGGTKLTVLG
notes: also called C25-derived clone 4R9_H2-2
As for B10, in experiment [2], the Kd worked out at 3.54 nM, the koff is 0.000627 s⁻¹ and the kon amounted to 169000 M⁻¹ s⁻¹. Besides, the “EC50 (read off the curve)” value in experiment [3] is ~0.04 µg/mL.
